B1: humanized anti-hIL-4R alpha monoclonal antibody 29-Hu (antibody, human IgG4 S228P, kappa, V domains shown)
VH: EVQLVESGGGLVQPGGSLRLSCAASGFTFSDYGMHWVRQAPGKGLEWVAYINSGSSKIYHADTVKGRFTISRDNAKNSLYLQMNSLRAEDTAVYYCARFPTVVAARYPMDYWGQGTLVTVSS
VL: DIQMTQSPSSLSASVGDRVTITCRASQDISNYLNWYQQKPGKAPKLLIYFTSRLHSGVPSRFSGSGSGTDYTLTISSLQPEDFATYYCQQGNTLPYTFGQGTKLEIKR
notes: Humanized, human IgG4 constant region; expressed in HEK293, purified on ProteinA
B2: humanized anti-hIL-4R alpha monoclonal antibody 131-Hu (antibody, human IgG4 S228P, kappa, V domains shown)
VH: B1 VH with A49S, N52S, K57T, H60Y, F99I, P100S, A105K, P108A
VL: B1 VL with F50Y, Y71F, F83I, Q90E, G91V, T93M, Y96F, L104V
notes: as for B1
B3: humanized anti-hIL-4R alpha monoclonal antibody 136-Hu (antibody, human IgG4 S228P, kappa, V domains shown)
VH: B1 VH with A49S, N52S, S56T, K57T, H60Y, F99I, P100S, A105K, P108A
VL: B1 VL with F50Y, Y71F, F83I, G91I, T93A, Y96F
notes: as for B1
B4: humanized anti-hIL-4R alpha monoclonal antibody 59-Hu (antibody, human IgG4 S228P, kappa, V domains shown)
VH: EVQLVESGGGLVQPGGSLRLSCAASGFTFSDYGIHWVRQAPGKGLEWVSYIRSDSSIIHYADTVKGRFTISRDNAKNSLYLQMNSLRAEDTAVYYCARGRDRGYFDYWGQGTLVTVSS
VL: EIVLTQSPATLSLSPGERATLSCSASSSVSYMYWYQQKPGQAPRPWIYLTSNLASGVPARFSGSGSGTDFTLTISSLEPEDFAVYYCQQWTSIPFTFGQGTKVEIKR
notes: as for B1
B5: humanized anti-hIL-4R alpha monoclonal antibody 236-Hu (antibody, human IgG4 S228P, kappa, V domains shown)
VH: QVQLVQSGAEVKKPGASVKVSCKASGYTFTDYNVDWVRQAPGQGLEWIGTINPNNGGILSNQKFKGRVTITVDTSASTAYMELSSLRSEDTAVYYCGRGGLRRRGFMDYWGQGTLVTVSS
VL: B4 VL with S24R, S30I, M32I, Y33H, L49A, T50A, A54P, T91S, I93N, F95P
notes: as for B1

Changes are numbered by the printed parent chain.

As usually defined, the Kd is a measure of binding affinity in units of concentration. The low end stands for a tighter complex, the high end for a looser complex. The term koff denotes a measure of how fast the partners let go of each other. What is called kon is a measure of how fast the partners come together. Low readings indicate slower complex formation, high ones faster complex formation.

One assay concerns the target T1, hIL-4R alpha-ECD-Flag (human, UniProt P24394 26-232).
T1 construct: range 26-232; Analyte of the Biacore experiment
The experiment in a line: SPR, Biacore T200, antibody captured on Protein-A chip, hIL-4R alpha-ECD-Flag as analyte. The protocol: The affinity of six purified humanized antibodies was detected by Biacore T200 (GE healthcare), with the reference antibody Dupilumab as a control. The specific experimental method was as follows: a Protein-A CMS sensor chip (GE healthcare) was used, with FC1 (Flow cell 1) as a reference channel, and FC2 (Flow cell 2) as a sample channel. Humanized antibodies or control antibody were captured in the FC2 channel, and then hIL-4R alpha-ECD-Flag at different concentrations was injected. Cycling conditions were as follows: an analyte was injected into all channels of FCs at 50 μl/min for 4 min, with a dissociation time of 20 min, and 6M guanidine hydrochloride (Sinopharm Chemical Reagent Co., Ltd.) was injected at a rate of 10 μl/min for 30 s for surface regeneration. Then, signal differences and affinity for interaction between captured antibodies and non-captured antibodies were calculated by Biacore T200 Evaluation Software Ver 1.0.
In general terms: SPR reads the build-up and loss of mass on a sensor chip optically.
B1: the Kd is 0.526 nM, the koff amounted to 0.00021 s⁻¹ and the kon worked out at 398000 M⁻¹ s⁻¹.

The molecule B2 yielded a Kd of 0.33 nM, a koff of 0.000111 s⁻¹ and a kon of 335000 M⁻¹ s⁻¹.

For B3, the Kd is 0.154 nM, the koff stood at 9.8e-05 s⁻¹ and the kon turned out to be 635000 M⁻¹ s⁻¹.

B4 returned a Kd of 0.25 nM, a koff of 0.000284 s⁻¹ and a kon of 1.14e+06 M⁻¹ s⁻¹.

In the case of B5, the affinity, expressed as Kd, was 0.173 nM; the koff turned out to be 0.000255 s⁻¹; the kon was 1.48e+06 M⁻¹ s⁻¹.

The next assay addresses human IL-4R alpha on cells (TF-1 cells; human peripheral blood mononuclear cells) (human, UniProt P24394 26-825). Briefly: cell-based or functional assay.
Regarding B1, the “IC50 (ng/ml), inhibition of IL-4-induced TF-1 cell proliferation” value (“IC50 (ng/ml), inhibition” for short) turned out to be 156 ng/mL.

For the molecule B2, the “IC50 (ng/ml), inhibition” value amounted to 90.6 ng/mL.

Take B3: the “IC50 (ng/ml), inhibition” value came out at 84.3 ng/mL.

For B4, the “IC50 (ng/ml), inhibition” value is 296 ng/mL.

As for B5, the “IC50 (ng/ml), inhibition” value is 54.6 ng/mL.
